The source of these data is patent publication US10689628B2, “Method of making variant LovD polypeptides” (THE REGENTS OF THE UNIVERSITY OF CALIFORNIA, priority 2009, dated 2020).

In data set [1] the test system is Neurospora crassa. Briefly: Agar diffusion growth inhibition of Neurospora crassa by statins. For orientation: Agar diffusion results depend on both activity and mobility in agar.
Description: N. crassa was grown on SDA slants for 10 days and spores were harvested with 1% Tween-80. 100 ml of molten SDA was seeded with 0.3-0.5×10^8 spores and poured into a 230×230 mm plate. Colonies from mutation library were cultured in 96 well plates containing 250 μl LB medium (with 35 mg/L kanamycin). The cells were grown at 37° C. to saturation and transferred to duplicated plates. Protein expression was induced with 0.1 mM IPTG at OD600 of 0.5 and the expression was performed at 25° C. for 16 h. 5 mM MJA and 10 mM DMB-SMMP were added to initiate the reaction. After a certain reaction time (45 mins to 4 hours depending on the activity of the parent), cells were removed with centrifugation (2,000 g, 4° C., 5 min). The amount of supernatant spotted on the SDA plate was typically 1-3 μl. The plates were incubated at 30° C. for 16˜18 hours.
N. crassa was grown on SDA slants for 10 days and spores were harvested with 1% Tween-80. 100 ml of molten SDA was seeded with 0.3-0.5×10^8 spores and poured into a 230×230 mm plate. Colonies from mutation library were cultured in 96 well plates containing 250 μl LB medium (with 35 mg/L kanamycin). The cells were grown at 37° C. to saturation and transferred to duplicated plates. Protein expression was induced with 0.1 mM IPTG at OD600 of 0.5 and the expression was performed at 25° C. for 16 h. 5 mM MJA and 10 mM DMB-SMMP were added to initiate the reaction. […]
Data set [2] addresses T1, LovD (Aspergillus terreus, UniProt Q9Y7D1).
T1 construct: made in house; host or cells: E. coli BL21(DE3)/pAW31
As to the kind of experiment: Initial velocities of thioester substrates with pure LovD. In kind it is biochemical. The conditions noted are these: 1 mM MJ, 4 mM thioester substrate, 10 uM pure LovD, 50 mM HEPES, pH 7.9.

Data set [3] addresses T1, LovD. Briefly: LovD transacylation of monacolin J with acyl-thioesters / acyl-CoAs (conversion by HPLC). The format is biochemical. Conditions: 10 μM LovD, 1 mM monacolin J, 4 mM acyl-thioester, 50 mM HEPES, pH 7.9, 25° C., 10 hours; HPLC 238 nm.
Description: Assays were performed with 1 mM monacolin J, 4 mM acyl-CoA and 10 uM LovD for 10 hours.
The test system of data set [4] is E. coli YT2. Briefly: Whole-cell biocatalysis, MJ acid and DMB-S-MMP to simvastatin acid (Example 1). The conditions noted are these: for time to convert 15 mM MJ acid into simvastatin acid: whole cell, culture concentrated 10 times, 18 mM DMB-S-MMP.
Description: Whole cell biocatalytic activities based on the conversion from MJ acid and DMB-S-MMP (gray column) and soluble protein expression level comparison between the wild type LovD and the mutants (black column). For the whole cell activity, the LB culture was concentrated 10 times to mimic high density fermentation, 15 mM MJ acid and 18 mM DMB-S-MMP were used to compare the conversion. The conversion based on 8 hours was used to compare the whole cell activity between the wild type LovD and the mutants. The wild type LovD conversion was normalized to 100%, the data points are averaged values of two runs.
The LovD wild type and all mutants were cultured side-by-side for comparison. A single colony of the freshly transformed strains was used to inoculate a 5 ml LB culture supplemented with 35 mg/L kan and grown overnight at 37° C. The next morning, 100 μl of the overnight culture (0.2%) was inoculated into 50 ml LB medium with Kan. When OD600 reached 0.4˜0.6, 0.1 mM IPTG was added to the culture and expression of LovD was performed at 20° C. for 16 hrs. To mimic the high density fermentation conditions, the cells were concentrated 10-fold before addition of substrates. A 14 ml aliquot of the culture was collected by centrifugation (4° C., 4000 g, 10 min). The cell pellet was gently resuspended in 1330 ml of the supernatant, followed by addition of 70 ml of a MJ acid stock solution (300 mM in water) to make final concentration 15 mM. The concentrated culture was then resuspended and separated into seven 200 μl samples, 1 μl of pure DMB-S-MMP was added to each sample (final concentration ˜20 mM). The cultures were then shaken at 300 rpm at room temperature. At each time point, a total extraction was performed by adding 10 μl of 20% SDS to completely lyse the cells, followed by liquid—liquid extraction with 500 μl EA/2% TFA. The organic phase was removed, evaporated, and redissolved in 500 μl ACN for HPLC analysis.
We then tested the in vivo activity of the nine mutants in comparison to the wild type LovD. Both the mutants and the wild type LovD strains were grown in LB media, expressed and concentrated 10 times to mimic the high density fermentation after 16 hours expression at 20° C. Both MJ acid and DMB-S-MMP were added to final 15 mM and 18 mM respectively to start the reaction. At 8 hours, 100 μl sample culture was taken out to check the total conversion from MJ acid to simvastatin acid.
The subject of data set [5] is MJ acid and DMB-S-MMP. As to the kind of experiment: Kinetic assay of LovD wild type and mutants towards MJ acid and DMB-S-MMP. In kind it is biochemical.
Description: Dimethyl sulfoxide (DMSO) was added to a final concentration of 10% to facilitate the solubilization of DMB-S-MMP. To compare the turnover rate of all mutants and the wild type protein, the MJ acid concentration was set at 1 mM and the DMB-S-MMP was set at 2 mM, the protein concentration was fixed at 10 uM, after the reaction was performed at room temperature for 2 hours, the reaction was quenched by adding EA/2% TFA. The organic phase was dried and redissolved in ACN for HPLC analysis.
The concentration of DMB-S-MMP was fixed at 2 mM and MJ acid concentration was varied from 0.25 mM to 2.0 mM. […] For the rest LovD mutant proteins, we only checked the conversion of one time point.
To obtain KM values for MJA and kcat, the DMB-SMMP concentration was fixed at 2 mM, while the concentration of MJA was varied from 0.25 to 5 mM. To obtain KM values for DMB-SMMP and kcat, the MJA concentration was fixed at 2 mM, while the concentration of DMB-SMMP was varied from 0.5 to 5 mM. Dimethyl sulfoxide (DMSO) was added to a final concentration of 10% to facilitate the solubilization of DMB-SMMP. At different time points of the kinetic assay, an aliquot of the reaction mixture was removed, quenched with 1% TFA and extracted with EA containing 1% acetic acid. The organic phase was separated, dried, resolubilized by acetonitrile (ACN) and analyzed by a Beckman Gold HPLC using a reverse phase C18 column (Alltech Apollo 5μ, 150 mm×4.6 mm) and a linear gradient: 60% ACN in water (0.1% trifluoroacetic acid (TFA)) to 95% ACN in water (0.1% TFA) for 10 min, 1 mL/min. Conversion of MJA to SVA was measured by integration of the peaks at 238 nm.
The nature of data set [6]: Native gel / SDS-PAGE of LovD proteins (oligomer, insoluble protein). The format is physicochemical. Conditions: for native gel: oligomer / monomer / stability (in words): DTT fixed at 2 mM. The method, then: FIG. 2. (a) SDS-PAGE gel LovD protein (WT) from E. coli BL21(DE3)/pAW31; (b) native gel of LovD protein (WT) and A1-A8 respectively, DTT was fixed at 2 mM for all samples.
LovD protein was purified to homogeneity by one step Ni-NTA column (FIG. 2a). […] The disulfide bonds between the proteins are spurious for protein crystallization because the monomer and oligomer are different species (see, e.g. Nemoto et al., 2006; J Appl Physiol 100(5):1688-91). One of our purposes was to remove the intermolecular disulfide bonds. By replacing the cysteine residues with alanine, we hope the resultant LovD mutant can keep the acyl-transferase activity while breaking the intermolecular disulfide bonds. […] We reasoned that the solubility of LovD may be changed when the intermolecular disulfide bonds between wild type LovD was eliminated (see, e.g. Lindberg et al., M. 2004; Proc Natl Acad Sci USA 101(45):15893-8).
We ran the native gel of all the mutant proteins together with the wild type LovD protein (FIG. 2b).

Data set [7] has as its system E. coli YT2. As to the kind of experiment: Whole-cell biocatalysis activity of LovD G0 and directed-evolution mutants (SVA synthesis).
Description: Wild type LovD and all mutants were cultured in parallel for comparison. A single colony of the freshly transformed YT2 competent cells was used to inoculate a 5 mL LB culture supplemented with 35 mg/L kanamycin. Following overnight growth at 37° C., 100 μl of the culture was inoculated into 50 mL LB medium supplemented with 35 mg/L kanamycin. When OD600 reached 0.4˜0.6, 0.1 mM IPTG was added to the cultures and expression of all LovD variants was performed at 25° C. for 16 hr. To mimic the high density fermentation conditions, the cells were then concentrated 10-fold before addition of substrates. A 10 ml aliquot of each culture was collected by centrifugation (4° C., 2,000 g, 10 min). The cell pellet was gently resuspended in 1 ml of the medium supernatant, followed by addition of 70 μl of MJA (300 mM stock) to a final concentration of 15 mM. The concentrated culture was then divided into seven 200 μl aliquots and 1 μl of pure DMB-SMMP was added to each sample to a final concentration of 20 mM. The small cultures were then shaken at 300 rpm at 25° C. At each time point, a complete extraction of one culture aliquot was performed by adding 10 μl of 20% SDS for cells lysis, followed by extraction with 500 μl ethyl acetate containing 1% trifluoroacetic acid TFA. The organic phase was removed, evaporated, and redissolved in 500 μl acetonitrile for HPLC analysis. The whole-cell activity was determined by fitting the linear regions of the conversion time course plot.
Parent LovD G0 and all mutants were cultured in parallel for comparison. A single colony of the freshly transformed YT2 competent cells was used to inoculate a 5 mL LB culture supplemented with 35 mg/L kanamycin. Following overnight growth at 37° C., 100 μl of the culture was inoculated into 50 mL LB medium supplemented with 35 mg/L kanamycin. When OD600 reached 0.4˜0.6, 0.1 mM IPTG was added to the cultures and expression of all LovD variants was performed at 25° C. for 16 hr. To mimic the high density fermentation conditions, the cells were then concentrated 10-fold before addition of substrates. A 10 ml aliquot of each culture was collected by centrifugation (4° C., 2,000 g, 10 min). The cell pellet was gently resuspended in 1 ml of the medium supernatant, followed by addition of 70 μl of MJA (300 mM stock) to a final concentration of 15 mM. The concentrated culture was then divided into seven 200 μl aliquots and 1 μl of pure DMB-SMMP was added to each sample to a final concentration of 20 mM. The small cultures were then shaken at 300 rpm at 25° C. At each time point, a complete extraction of one culture aliquot was performed by adding 10 μl of 20% SDS for cells lysis, followed by extraction with 500 μl ethyl acetate containing 1% trifluoroacetic acid TFA. The organic phase was removed, evaporated, and redissolved in 500 μl acetonitrile for HPLC analysis. The whole-cell activity was determined by fitting the linear regions of the conversion time course plot.
Data set [8] can be described thus: Soluble LovD protein expression level (Ni-NTA purification, Bradford assay).
Description: Each mutant was transformed into E. coli YT2 strain and selected by Kanamycin (Kan). The transformant was grown in 500 ml LB-Kan media at 37° C. to OD600 0.4˜0.6, then 0.1 mM IPTG was added to induce protein expression at 20° C. for 16 hours. Cells were collected by centrifugation, resuspended in 30 ml Buffer A (50 mM Tris-HCl, pH 8.0, 2 mM 2 mM EDTA), and lysed by sonication. Cell debris and insoluble proteins were removed by centrifugation (16,000 g, 4° C., 1 h). To the cleared lysate, 2 ml of Ni-NTA resin (Qiagen) was added. Each mutant was purified using a step gradient of buffer A with increasing concentration of imidazole. Pure (>95%) LovD proteins were eluted in buffer A containing 250 mM imidazole, and then buffer exchanged into buffer A without imidazole. Glycerol was added to a final concentration of 10%, the proteins were aliquoted, and flash frozen.
All nine mutants and the wild type LovD proteins were purified at the same time and under the same conditions. The proteins were purified from 50 ml LB culture. LovD was eluted in the last fraction which contains 250 mM imidazole. The concentration of the last fraction was determined by Bradford Assay using BSA as the standard.
Each expression plasmid encoding LovD mutant was transformed into E. coli BL21(DE3). The transformant was cultured in 50 mL LB medium containing 35 mg/L Kan at 37° C. to optical density (OD600) value of 0.4˜0.6. Protein expression was induced with 0.1 mM IPTG and the subsequent expression was performed at 25° C. for 16 h. Cells were collected by centrifugation (2,000 g, 4° C., 15 min), resuspended in 7 mL Buffer A (50 mM Tris-HCl, pH 8.0, 2 mM DTT, 2 mM EDTA), and lysed by sonication. Cell debris and insoluble proteins were removed by centrifugation (20,000 g, 4° C., 1 h). To the cleared cell lysate, 0.5 mL of Ni-NTA resin (Qiagen, Valencia, Calif.) was added to each sample. […] The protein concentrations were qualitatively assessed by SDS-PAGE and quantitatively determined by the Bradford protein assay using bovine serum albumin (BSA) as the standard.
[9] abbreviates: DMB-S-MMP fixed at 2 mM, MJ acid 0.25 mM to 2.0 mM.

Substitutions are numbered along the chain they refer to. Numbers in names are those of the source. Where “and” joins values, the source holds several entries; their conditions need not be identical. Equal entries are not always repeated. Entries after “also recorded” stand apart in the source; their conditions may differ.

What is called Km is the concentration of substrate that gives half-maximal velocity.

Turning to `C[C@H]1C=C2C=C[C@H](C)[C@H](CC[C@@H](O)C[C@@H](O)CC(=O)O)[C@H]2[C@@H](O)C1` [MJA, monacolin J acid], the “quantity needed to inhibit the growth of N. crassa (in words)” value in data set [1] is “hundred milligram quantities”.
In the case of `CCC(C)(C)C(=O)SCCC(=O)O` [DMB-S-MPA], the “Initial Velocity (ki)” value in data set [2] is 0.08 min⁻¹.
On the same count and under the same terms, with `CCC(C)(C)C(=O)SCC(=O)OC` [DMB-S-MTG, dimethylbutyryl-S-methyl thioglycolate] the figure was 0.03 min⁻¹.
On to `CCC(C)(C)C(=O)SCC(=O)OC` [drawing 22], for which the “Conversion (percent monacolin J converted to the corresponding lovastatin analog)” value in data set [3] is recorded as 17%, 8.5.
On to `CCC(C)(C)C(=O)O[C@H]1C[C@@H](C)C=C2C=C[C@H](C)[C@H](CC[C@@H](O)C[C@@H](O)CC(=O)O)[C@H]21` [SVA, simvastatin acid], for which the “quantity needed to inhibit the growth of N. crassa (in words)” value in data set [1] is on record as “sub-microgram quantities”.
`CCC(C)(C)C(=O)SCCCC(=O)OC` [DMB-S-MMB, dimethylbutyryl-S-methyl mercaptobutyrate]: the “Initial Velocity (ki)” value in data set [2] was 0.78 min⁻¹.
In the case of `CCC(C)(C)C(=O)SCCNC(C)=O` [DMB-S-NAC, α-dimethylbutyryl-SNAC], the “Initial Velocity (ki)” value in data set [2] stood at 0.02 min⁻¹.
Take `COC(=O)CSC(=O)c1ccccc1`: the “Conversion (percent monacolin J converted to the corresponding lovastatin analog)” value in data set [3] is listed as 70%, 7.6.
For `CCOC(=O)CCSC(=O)C(C)(C)CC` [DMB-S-EMP, dimethylbutyryl-S-ethyl mercaptopropionate], the “Initial Velocity (ki)” value in data set [2] is 0.70 min⁻¹.
For `CCCC(=O)SCC(=O)OC`, in data set [3], the “Conversion (percent monacolin J converted to the corresponding lovastatin analog)” value is 92%, 6.8.

B1: wild type LovD: A. terreus LovD acyltransferase polypeptide, SEQ ID NO: 1 (protein, listed as Aspergillus terreus)
chain: MGSIIDAAAAADPVVLMETAFRKAVKSRQIPGAVIMARDCSGNLNYTRCFGARTVRRDECNQLPPLQVDTPCRLASATKLLTTIMALQCMERGLVDLDETVDRLLPDLSAMPVLEGFDDAGNARLRERRGKITLRHLLTHTSGLSYVFLHPLLREYMAQGHLQSAEKFGIQSRLAPPAVNDPGAEWIYGANLDWAGKLVERATGLDLEQYLQENICAPLGITDMTFKLQQRPDMLARRADQTHRNSADGRLRYDDSVYFRADGEECFGGQGVFSGPGSYMKVLHSLLKRDGLLLQPQTVDLMFQPALEPRLEEQMNQHMDASPHINYGGPMPMVLRRSFGLGGIIALEDLDGENWRRKGSLTFGGGPNIVWQIDPKAGLCTLAFFQLEPWNDPVCRDLTRTFEHAIYAQYQQG
With B1, in data set [4], the “time to convert 15 mM MJ acid into simvastatin acid” value came to 12 h. Moreover, in data set [5] (setting [9]), the Michaelis constant (Km) was found to be 640 µM and the kcat came out at 0.62 min⁻¹. In addition, the kcat in data set [5] (FIG. 1 legend, MJ acid and DMB-S-MMP to simvastatin) is recorded as 0.6 min'. Also, in data set [6] (native gel, even at high DTT concentration), the “fraction of LovD protein forming oligomer” value is on record as around 20%. The “fraction of expressed LovD protein insoluble” value in data set [6] (overexpressed in E. coli) is “more than 50%”.

B2: A3: LovD C60A mutant (protein, UniProt Q9Y7D1 1-413, looked up, variant C60A)
Monacolin J acid …: B1 chain with C60A
For B2, the “whole cell activity compared to the wild type (in words)” value in data set [4] (8 hours conversion, alanine scanning mutants) is given as “slightly higher activity”. Moreover, in data set [5] (setting [9]), the Km stood at 660 µM and the kcat came out at 0.64 min⁻¹. Moreover, the “native gel: oligomer / monomer / stability (in words)” value in data set [6] is “almost all monomers; also recorded: eliminated most of the oligomer”.

B3: A1N3: LovD double mutant C40A/C60N, starting point (generation zero) of directed evolution (protein, UniProt Q9Y7D1 1-413, looked up, variant C40A C60N)
Monacolin J acid …: B1 chain with C40A, C60N
Take B3: the “faster than the single mutant A1 and N3” value in data set [4] (whole cell time course) is “about 20%”. Also, in data set [4], the “time to convert 15 mM MJ acid into simvastatin acid” value was around 8 h. For the same molecule, in data set [7] (25° C.), the “whole cell SVA production rate” value is reported as around 1.7 mM per hour. Besides, the “whole cell activity when expressed at 32° C. (in words)” value in data set [7] (32° C.) is reported as “did not show any activity”. In addition, the whole-cell conversion rate in data set [7] (normalized to 1 in FIG. 13) is 1.7 mM/h.

B4: GX27: LovD mutant with eight mutations: C40A, C60N, A86V, D12G, G275S, A190T, H161Y (printed 11161Y) and K26E (protein, UniProt Q9Y7D1 1-413, looked up, variant C40A C60N A86V D12G G275S A190T H161Y K26E)
Monacolin J acid …: B1 chain with D12G, K26E, C40A, C60N, A86V, H161Y, A190T, G275S
Turning to B4, the “improvement of the soluble expression level compared to wild type enzyme” value in data set [8] is 4 fold. In addition, the “improvement of the kcat/Km value compared to wild type enzyme” value in data set [5] came out at 3.45 fold. Further, the “improvement in whole-cell activity compared to wild type enzyme” value in data set [7] (25° C.) is given as 11 fold.

B5: GX12: LovD mutant with six mutations: C40A, C60N, A86V, D12G, G275S and A190T (protein, UniProt Q9Y7D1 1-413, looked up, variant C40A C60N A86V D12G G275S A190T)
Monacolin J acid …: B1 chain with D12G, C40A, C60N, A86V, A190T, G275S
Consider B5, for which the “improvement of the soluble expression level compared to wild type enzyme” value in data set [8] was 2.3 fold. Further, in data set [5], the “improvement of the kcat/Km value compared to wild type enzyme” value is reported as 2.83 fold. For the same molecule, the “improvement in whole-cell activity compared to wild type enzyme” value in data set [7] (25° C.) is 7.5 fold.

B6: A1: LovD C40A mutant (protein, UniProt Q9Y7D1 1-413, looked up, variant C40A)
Monacolin J acid …: B1 chain with C40A
In the case of B6, the “solubility more than the wild type” value in data set [8] (purified from 50 ml LB culture, Bradford) is 28%. In addition, the “whole cell activity higher than the wild type” value in data set [4] (based on 8 hours conversion, wild type normalized to 100%) is ~25% and 31%. In addition, in data set [5] (setting [9]), the Km worked out at 680 µM and the kcat was 0.62 min⁻¹. Further, the “native gel: oligomer / monomer / stability (in words)” value in data set [6] is given as “slightly more monomers; also recorded: slightly less oligomer”.
